Source: patent US20220242974A1 (QURE BIOTECHNOLOGY SHANGHAI, published 2022)

Molecular target: PD-L1-his fusion protein (Homo sapiens (Human), UniProt Q9NZQ7 19-238)
Assay: ELISA, PD-L1-his coated, culture supernatant of the clone

PD-L1-his fusion protein, sequence (Q9NZQ7 other isoform, or with tags, fused parts or gaps limits assumed): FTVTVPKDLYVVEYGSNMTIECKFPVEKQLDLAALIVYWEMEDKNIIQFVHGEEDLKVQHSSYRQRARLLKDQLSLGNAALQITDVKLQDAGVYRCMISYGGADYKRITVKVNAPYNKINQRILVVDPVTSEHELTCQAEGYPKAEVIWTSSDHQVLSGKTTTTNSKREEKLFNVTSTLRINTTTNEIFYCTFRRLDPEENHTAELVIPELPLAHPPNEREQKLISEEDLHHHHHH

Row | Binder | binding result
1 | QP1163 nanobody (VHH, as m59) VHH: QVQLVESGGGSVQSGGSLRLSCAASGFTYGTYAMSWFRQAPGKEREGVACIDIYGRTSYTDPVKGRFTISQDNAKNTLYLQMNSLKPEDTAMYYCAARDFGYCTASWVHAGFSRYWGQGTQVTVSS | binds
2 | QP1165 nanobody (VHH, as m59) VHH: QVQLVESGGGSVQSGGSLRLSCAASGFTYGAYAMSWFRQAPGKEREGVACIDIYGRTSYTDPVKGRFTISQDNAKNTLYLQMNSLKPEDTAMYYCAARDFGYCTASWVHEGFSRYWGQGTQVTVSS | binds
3 | QP1169 nanobody (VHH, as m59) VHH: QVQLVESGGGSVQSGGSLRLSCAASGFTYGTYAMSWFRQAPGKEREGVACIDIYGRTSYTDPVKGRFTISQDNAKNTLYLQMNSLKPGDTAMYYCAARDFGYCTASWVHEGFSRYWGQGTQVTVSS | binds
4 | QP1168 nanobody (VHH, as m59) VHH: QVQLVESGGGSVQSGGSLRLSCAASGFTYETYAMSWFRQAPGKEREGVACIDIYGRTSYTDPVKGRFTISQDNAKNTLYLQMNSLKPEDTAMYYCAARDFGYCTASWVHEGFSRYWGQGTQVTVSS | binds
5 | QP1164 nanobody (VHH, as m59) VHH: QVQLVESGGGSVQSGGSLRLSCAASGFTYGTYAMSWFRQTPGKEREGVACIDIYGRTSYTDPVKGRFTISQDNAKNTLYLQMNSLKPEDTAMYYCAARDFGYCTASWVHEGFSRYWGQGTQVTVSS | binds
6 | QP1123 nanobody (VHH, as m59) VHH: QVQLVESGGGSVQSGGSLRLSCAASGYTVRHYCMGWFRQTPGKEREGVASIDTFGIPKYADSVKGRFTISQDNAKNTLNLQMDSLKPEDTAMYFCAGRSYTNCRDGPPSASHYSHWGQGTQVTVSS | binds
7 | QP1147 nanobody (VHH, as m59) VHH: QVQLVESGGGSVQAGGSLTLSCAVSGNTYSTKYMGWFRQAPGKEREGVAAILAGGRNTYYADSVKGRFTISQDNAKNTVYLQMNSLKPEDTAMYYCAADTRAAFWYIGPLNSDQYNIWGQGTQVTVSS | binds
8 | QP1139 nanobody (VHH, as m59) VHH: QVQLVESGGGSVQAGGSLTLSCAVSGNTYGTNAMGWFRQAPGKEREGVAAILGGGRNTYYADSVKGRFTISQDNAKNTVYLQMNSLKPEDTAMYYCAADTRAAFWNIGPLNSDQYNIWGQGTQVTVSS | binds
9 | QP1141 nanobody (VHH, as m59) VHH: QVQLVESGGGSVQAGGSLTLSCAVSGNTYSTNAMGWFRQAPGKEREGVAAILGGGRNTYYADSVKGRFTISQDNAKNTVYLQMNSLKPEDTAMYYCAADTRAAFWNIGPLNSDQYNIWGQGTQVTVSS | binds
10 | QP1157 nanobody (VHH, as m59) VHH: QVQLVESGGGSVQAGGSLTLSCAVSGNTYSTNYMGWFRQAPGKEREGVAAILVGGRNTYYADPVKGRFTISQDNAKNLVYLQMNSLKPEDTAMYYCAADTRAAFWNIGPLNSDQYNIWGQGTQVTVSS | binds
11 | QP1159 nanobody (VHH, as m59) VHH: QVQLVESGGGSVQAGGSLTLSCAVSGNTYSTKYMGWFRQAPGKEREGVAAILAGGRNTSYADSVKGRFTISQDNAKNTVYLQMNSLKPEDTAMYYCAADTRAAFWYIGPLNSDQYNIWGQGTQVTVSS | binds
12 | QP1143 nanobody (VHH, as m59) VHH: QVQLVESGGGSVQAGGSLTLSCAVSGNTYSTKYMGWFRQAPGKEREGVAAILAGGRDTYYADSVKGRFTISQDNAKNTVYLQMNSLKPEDTAMYYCAADTRAAFWYIGPLNSDQYNIWGQGTQVTVSS | binds
13 | QP1145 nanobody (VHH, as m59) VHH: QVQLVESGGGSVQAGGSLTLSCAVSGNTYSTKYMAWFRQAPGKEREGVAAILAGGRNTSYADSVKGRFTISQDNAKNTVYLQTNSLKPEDTAMYYCAADTRAAFWYIGPLNSHQYNIWGQGTQVTVSS | binds
14 | QP1153 nanobody (VHH, as m59) VHH: QVQLVESGGGSVQAGGSLTLSCAVSGNTYSTKYMGWFRQAPGKEREGVAAILAGGRNTDYADSVKGRFTISQDNAKNTVYLQMNSLKPEDTAMYYCAADTRAAFWSIGPLNSDQYNIWGQGTQVTVSS | binds
15 | QP1161 nanobody (VHH, as m59) VHH: QVQLVESGGGSVQAGGSLTLSCAVSGNTYSTNYMAWFRQAPGKEREGVAAIRVGGRNTDYADSVKGRFTISQDNAKNTVYLQMNSLKPEDTAMYYCAADTRAAFWYIGPLNSDQYNIWGQGTQVTVSS | binds
16 | QP1148 nanobody (VHH, as m59) VHH: QVQLVESGGGSVQAGGSLTLSCAVSGNTYSTNYMGWFRQAPGKEREGVAAILAGGRNTAYADSVKGRFTISQDNAKNTVYLQMNSLKPEDTAMYYCAADTRAAFWNIGPLNSDQYNIWGQGTQVTVSS | binds

Row | Binder | binding result
17 | QP1142 nanobody (VHH, as m59) VHH: QVQLVESGGGSVQAGGSLTLSCAVSGNTYSTNIMGWFRQAPGKEREGVAAILAGGRNTYYADSVKGRFTISQDNAKNTVYLQMNSLKPEDTAMYYCAADTRAAFWNIGPLNSDQYNIWGQGTQVTVSS | binds
18 | QP1140 nanobody (VHH, as m59) VHH: QVQLVESGGGSVQAGGSLTLSCVVSGNTYSTKYMGWFRQAPGKEREGVAAILAGGRNTYYADSVKGRFTISQDNAKNTVYLQMNSLKPEDTAMYYCAADTRAAFWNIGPLNSDQYNIWGQGTQVTVSS | binds
19 | QP1158 nanobody (VHH, as m59) VHH: QVQLVESGGGSVQAGGSLTLSCAVSGNTYSTKYMGWFRQAPGKEREGVAAILAGGRNTYYADSVKGRFTISQDNAKNTVYLRMNSLKPEDTAMYYCAADTRAALWYIGPLNSDQYNTWGQGTQVTVSS | binds
20 | QP1149 nanobody (VHH, as m59) VHH: QVQLVESGGGSVQAGGSLTLSCAVSGNTYSTNYMGWFRQAPGKEREGVAAILAGGRNTYYADSVKGRFTISQDNAKDTVYLQMNSLKPEDTAMYYCAADTRAAFWNIGPLNSDQYNIWGQGTQVTVSS | binds
21 | QP1155 nanobody (VHH, as m59) VHH: QVQLVESGGGSVQAGGSLTLSCEVSGSTYSTNYMGWFRQAPGKEREGVAAILAGGRNTDYADSVKGRFTISQDNAKNTVYLQMNSLKPEDTAMYYCAADTRAAFWYIGPLNSDQYNIWGQGTQVTVSS | binds
22 | QP1156 nanobody (VHH, as m59) VHH: QVQLVESGGGSVQAGGSLTLSCAVSGNTYSTKYMGWFRQAPGKEREGVAAILAGGRNTYYADSVKGRFTISQDSAKNTVYLQMNSLKPEDTAMYYCAADTRAAFWYIGPLNSDQYNSWGQGTQVTVSS | binds
23 | QP1151 nanobody (VHH, as m59) VHH: QVQLVESGGGSVQAGGSLTLSCAVSGNTYSTNYMGWFRQAPGKEREGVAAILTGGRNTYYADSVKGRFTISQDNAKNTVYLQMNSLKPEDTAMYYCAADTRAAFWNIGPLNSDQYNIWGQGTQVTVSS | binds
24 | QP1160 nanobody (VHH, as m59) VHH: QVQLVESGGGSVQAGGSLTLSCAISGNTYSTKYMGWFRQAPGKEREGVAAILAGGRNTYYADSVKGRFTISQDNAKNTVYLQMNSLKPEDTAMYYCAADARAAFWYIGPLNSDQYNIWGQGTQVTVSS | binds
25 | QP1146 nanobody (VHH, as m59) VHH: QVQLVESGGGSVQAGGSLTLSCAVSGNTYSTNYMGWFRQAPGKEREGVAAILVGGRNTYYADSVKGRFTISQDNAKNLVYLQMNSLKPEDTAMYYCAADTRAAFWNIGPLNSDQYNIWGQGTQVTVSS | binds
26 | QP1152 nanobody (VHH, as m59) VHH: QVQLVESGGGSVQAGGSLTLSCAISGNTYSTKYMGWFRQAPGKEREGVAAILAGGRNTYYADSVKGRFTISQDNAKNTVYLQMHSLKPEDTAMYYCAADTRAAFWYIGPLNSDQYNLWGQGTQVTVSS | binds
27 | QP1154 nanobody (VHH, as m59) VHH: QVQLVESGGGSVQAGGSLTLSCAVSGNTYSTNYMAWFRQAPGKEREGVAAIRAGGRNTDYADSVKGRFTISQDNAKNTVYLQMNSLKPEDTAMYYCAADTRAAFWYIGPLNSDQYNIWGQGTQVTVSS | binds
28 | QP1150 nanobody (VHH, as m59) VHH: QVQLVESGGGSVQAGGSLTLSCAVSGNTYSTKYMGWFRQAPGKEREGVAAILAGGRNTHYADSVKGRFAISQDNAKNTVYLQMNSLKPEDTAMYYCAADTRAAFWNIGPLNSDQYNIWGQGTQVTVSS | binds
29 | QP1130 nanobody (VHH, as m59) VHH: QVQLVESGGGLVQPGGSLRLSCAASGFTFSTSTMMWVRRAPGKGLEWVSGIHNDGGPIAYADSVKGRFTISRDNAKNTLYLQMTSLKSEDTALYYCARGWYFSGDYVPMTQGTQVTVSS | binds
30 | QP1121 nanobody (VHH, as m59) VHH: QVQLVESGGGSVHAGGSLRLSCVRVSMYTYTGTCMAWFRQAPGKEREGVAGLWTGDGVTYYADSVKGRFTISQDDAKNTLYLQMDSLKPEDTAMYYCASNGMCGQYWALEDEYKYWGQGTQVTVSS | binds
31 | QP1124 nanobody (VHH, as m59) VHH: QVQLVESGGGLVQPGGSLRLSCTAPGFTSNTCAMGWYRQAAGMQREWVSSISKYGITTYANSVKGRFTISKDKAEDTVYLQMNNLKPEDTAMYVCKTFSCRNRGGAYLADAWGQGTQVTVSS | binds
32 | QP1129 nanobody (VHH, as m59) VHH: QVQLVESGGGSVQSGGSLRLSCAASGYSSSRYSVGWFRQAPGKEREGVAGQTPRGTTTYADSVKDRFTISRDNAKNTVYLQMNSLKPEDTAMYYCAAGQALLWASLRQTSYQFWGQGTQVTVSS | binds
